# B1: Tryprostatin B synthase ftmPT1 (Aspergillus fumigatus), Q4WAW7 (protein)
# chain: MPPAPPDQKPCHQLQPAPYRALSESILFGSVDEERWWHSTAPILSRLLISSNYDVDVQYKYLSLYRHLVLPALGPYPQRDPETGIIATQWRSGMVLTGLPIEFSNNVARALIRIGVDPVTADSGTAQDPFNTTRPKVYLETAARLLPGVDLTRFYEFETELVITKAEEAVLQANPDLFRSPWKSQILTAMDLQKSGTVLVKAYFYPQPKSAVTGRSTEDLLVNAIRKVDREGRFETQLANLQRYIERRRRGLHVPGVTADKPPATAADKAFDACSFFPHFLSTDLVEPGKSRVKFYASERHVNLQMVEDIWTFGGLRRDPDALRGLELLRHFWADIQMREGYYTMPRGFCELGKSSAGFEAPMMFHFHLDGSQSPFPDPQMYVCVFGMNSRKLVEGLTTFYRRVGWEEMASHYQGNFLANYPDEDFEKAAHLCAYVSFAYKNGGAYVTLYNHSFNPVGDVSFPN
# Columns and labels:
# [1] = substrate: O=C1N[C@@H](Cc2c[nH]c3ccccc23)C(=O)N2CCC[C@@H]12; assay: (§1) Activity at Aspergillus fumigatus FtmPT1 by HPLC analysis
# [2] = substrate: N[C@@H](Cc1c[nH]c2ccccc12)C(=O)O; assay: as §1
protein,measurement,setting,value
B1,Km,[1],55 µM
same,kcat,[1],5.57 s⁻¹
same,Km,[2],820 µM
same,kcat,[2],0.12 s⁻¹

# — ChEMBL document CHEMBL1151808, “Substrate promiscuity of the cyclic dipeptide prenyltransferases from Aspergillus fumigatus ( section sign)” (J Nat Prod, 2009)
